Measurements as given in patent publication US20210147513A1.

How the values were obtained:
[1] = molecular target: S1(349-590)-hFc (MERS-CoV; human); assay: BLI (Octet RED96), wild type RBD-hFc
hDPP4 Cells (human) = hDPP4 Cells (human) (UniProt P27487); assay: FACS; conditions: Fc fusion
hDPP4 Cells (human), sequence (P27487 whole entry, the tested form may be a part): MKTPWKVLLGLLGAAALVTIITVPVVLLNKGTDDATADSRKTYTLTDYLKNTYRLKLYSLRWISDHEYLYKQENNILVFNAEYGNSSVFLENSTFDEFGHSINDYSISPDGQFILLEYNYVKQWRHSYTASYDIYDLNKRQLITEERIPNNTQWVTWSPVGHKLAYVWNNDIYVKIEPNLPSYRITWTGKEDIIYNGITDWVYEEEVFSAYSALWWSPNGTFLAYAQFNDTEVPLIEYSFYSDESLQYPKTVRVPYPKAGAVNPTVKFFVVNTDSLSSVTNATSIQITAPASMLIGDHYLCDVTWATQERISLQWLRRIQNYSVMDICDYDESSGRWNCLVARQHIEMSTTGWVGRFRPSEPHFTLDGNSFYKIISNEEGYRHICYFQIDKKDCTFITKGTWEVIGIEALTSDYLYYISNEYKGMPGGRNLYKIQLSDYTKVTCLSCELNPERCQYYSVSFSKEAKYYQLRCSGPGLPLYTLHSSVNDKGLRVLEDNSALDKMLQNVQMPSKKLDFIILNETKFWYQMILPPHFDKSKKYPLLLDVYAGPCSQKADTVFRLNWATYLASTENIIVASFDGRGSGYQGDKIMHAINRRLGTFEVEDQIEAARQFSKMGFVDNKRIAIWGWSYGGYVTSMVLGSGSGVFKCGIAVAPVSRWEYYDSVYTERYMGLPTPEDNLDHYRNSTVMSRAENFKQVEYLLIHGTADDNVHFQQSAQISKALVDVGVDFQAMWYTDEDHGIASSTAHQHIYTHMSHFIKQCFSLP

Row | Substance | Kd [1] | EC50 (hDPP4 Cells (human))
1 | Recombinant soluble human DPP4 (from UniProt P27487 29-766) (receptor) | 21.4 nM | 
2 | Wt. RBD |  | 0.015 µg/mL
